Test results from patent publication US20040191887A1 (WISCONSIN ALUMNI RESEARCH FOUNDATION, published 2004).

What was measured:
botulinum neurotoxin E = molecular target: T1, botulinum neurotoxin E (Clostridium botulinum, UniProt Q00496 2-1251); assay: GST pull-down with and without gangliosides, immunoblot
T1 sequence: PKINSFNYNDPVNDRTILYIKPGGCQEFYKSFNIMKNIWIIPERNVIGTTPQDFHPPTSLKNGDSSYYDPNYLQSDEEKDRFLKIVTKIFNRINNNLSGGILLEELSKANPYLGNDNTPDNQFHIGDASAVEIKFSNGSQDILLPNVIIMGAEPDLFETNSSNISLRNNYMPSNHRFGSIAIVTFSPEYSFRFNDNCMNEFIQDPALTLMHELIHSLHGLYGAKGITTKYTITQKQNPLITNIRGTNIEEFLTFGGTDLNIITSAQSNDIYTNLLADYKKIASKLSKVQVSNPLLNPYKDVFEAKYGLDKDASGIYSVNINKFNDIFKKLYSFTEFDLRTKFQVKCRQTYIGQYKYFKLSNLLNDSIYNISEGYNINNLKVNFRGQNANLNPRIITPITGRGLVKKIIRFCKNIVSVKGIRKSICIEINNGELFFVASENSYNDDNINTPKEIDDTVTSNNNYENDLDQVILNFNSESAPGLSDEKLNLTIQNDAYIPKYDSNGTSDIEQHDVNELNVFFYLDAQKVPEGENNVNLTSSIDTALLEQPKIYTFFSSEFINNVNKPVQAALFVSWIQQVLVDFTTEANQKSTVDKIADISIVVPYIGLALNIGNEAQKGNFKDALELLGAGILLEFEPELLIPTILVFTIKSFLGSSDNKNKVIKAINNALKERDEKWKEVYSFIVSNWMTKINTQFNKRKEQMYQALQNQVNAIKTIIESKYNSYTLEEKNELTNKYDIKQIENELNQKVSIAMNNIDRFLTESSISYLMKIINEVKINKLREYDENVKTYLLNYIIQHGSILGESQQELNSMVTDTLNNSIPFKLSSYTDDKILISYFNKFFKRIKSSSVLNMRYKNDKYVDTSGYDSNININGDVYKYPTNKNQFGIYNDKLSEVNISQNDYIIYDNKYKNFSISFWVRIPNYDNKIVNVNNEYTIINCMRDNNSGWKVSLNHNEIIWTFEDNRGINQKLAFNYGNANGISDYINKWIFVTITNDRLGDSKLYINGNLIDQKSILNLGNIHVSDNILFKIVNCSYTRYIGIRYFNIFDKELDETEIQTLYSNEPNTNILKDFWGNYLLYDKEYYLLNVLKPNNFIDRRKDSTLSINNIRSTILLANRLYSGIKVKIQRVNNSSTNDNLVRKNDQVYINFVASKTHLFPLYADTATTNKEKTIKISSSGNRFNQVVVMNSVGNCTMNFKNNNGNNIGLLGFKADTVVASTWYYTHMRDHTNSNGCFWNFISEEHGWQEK

botulinum neurotoxin A = botulinum neurotoxin A (Clostridium botulinum, UniProt P0DPI0 2-1296); assay: as above
Chain of botulinum neurotoxin A (P0DPI0 2-1296 limits assumed): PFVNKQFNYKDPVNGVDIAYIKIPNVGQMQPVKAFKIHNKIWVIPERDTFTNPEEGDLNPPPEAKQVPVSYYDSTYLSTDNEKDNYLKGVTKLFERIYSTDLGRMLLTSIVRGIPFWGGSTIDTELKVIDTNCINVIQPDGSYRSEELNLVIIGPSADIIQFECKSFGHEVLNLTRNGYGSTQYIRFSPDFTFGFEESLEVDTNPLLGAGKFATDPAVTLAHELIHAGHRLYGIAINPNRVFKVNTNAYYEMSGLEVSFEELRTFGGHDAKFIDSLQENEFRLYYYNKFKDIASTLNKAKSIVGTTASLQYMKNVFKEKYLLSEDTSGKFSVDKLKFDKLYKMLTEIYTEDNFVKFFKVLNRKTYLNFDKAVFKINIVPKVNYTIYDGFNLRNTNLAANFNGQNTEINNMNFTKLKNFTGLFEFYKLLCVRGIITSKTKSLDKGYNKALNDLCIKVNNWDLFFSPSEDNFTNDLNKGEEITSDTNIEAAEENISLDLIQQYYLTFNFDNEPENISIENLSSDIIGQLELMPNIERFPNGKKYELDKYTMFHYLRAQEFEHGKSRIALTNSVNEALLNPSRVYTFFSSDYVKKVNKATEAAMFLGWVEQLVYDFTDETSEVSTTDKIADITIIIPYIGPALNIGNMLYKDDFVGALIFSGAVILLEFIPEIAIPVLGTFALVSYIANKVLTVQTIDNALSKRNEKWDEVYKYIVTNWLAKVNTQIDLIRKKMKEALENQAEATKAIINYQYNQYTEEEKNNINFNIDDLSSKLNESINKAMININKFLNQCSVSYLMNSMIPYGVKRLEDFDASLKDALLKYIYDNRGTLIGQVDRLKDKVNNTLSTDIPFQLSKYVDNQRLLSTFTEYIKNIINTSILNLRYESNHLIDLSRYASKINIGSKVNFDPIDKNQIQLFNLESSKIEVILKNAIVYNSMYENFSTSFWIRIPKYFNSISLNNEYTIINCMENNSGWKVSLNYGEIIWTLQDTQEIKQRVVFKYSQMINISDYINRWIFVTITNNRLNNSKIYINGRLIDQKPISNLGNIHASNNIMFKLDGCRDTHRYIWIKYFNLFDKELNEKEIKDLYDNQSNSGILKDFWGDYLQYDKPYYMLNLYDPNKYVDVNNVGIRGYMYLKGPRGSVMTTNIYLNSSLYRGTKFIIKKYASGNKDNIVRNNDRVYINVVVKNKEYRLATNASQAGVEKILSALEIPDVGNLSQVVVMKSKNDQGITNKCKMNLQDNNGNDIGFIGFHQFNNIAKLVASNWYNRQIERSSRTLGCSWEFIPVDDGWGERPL

B1: GST fusion of rat synaptotagmin I lacking the C2B domain (receptor)
chain: MVSASHPEALAAPVTTVATLVPHNATEPASPGEGKEDAFSKLKQKFMNELHKIPLPPWALIAIAIVAVLLVVTCCFCVCKKCLFKKKNKKKGKEKGGKNAINMKDVKDLGKTMKDQALKDDDAETGLTDGEEKEEPKEEEKLGKLQYSLDYDFQNNQLLVGIIQAAELPALDMGGTSDPYVKVFLLPEKKKKFETKVHRKTLNPVFNEQFTFKVPYSELGGKTLVMAVYDFDRFSKHDIIGEFKVPMNTVDFGHVTEEWRDLQSA
Botulinum neurotoxin E
  binding result: no binding (tested: 30 nM; also 300 nM (data not shown))
Botulinum neurotoxin A
  binding result: no binding (tested: 30 nM; also 300 nM (data not shown))

B2: GST fusion of mouse synaptotagmin II lacking the C2B domain (residues 1-267) (receptor)
chain: MRNIFKRNQEPNVAPATTTATMPLAPVAPADNSTESTGPGESQEDMFAKLKEKFFNEINKIPLPPWALIAMAVVAGLLLLTCCFCICKKCCCKKKKNKKEKGKGMKNAMNMKDMKGGQDDDDAETGLTEGEGEGEEEKEPENLGKLQFSLDYDFQANQLTVGVLQAAELPALDMGGTSDPYVKVFLLPDKKKKYETKVHRKTLNPAFNETFTFKVPYQELAGKTLVMAIYDFDRFSKHDIIGEVKVPMNTVDLGQPIEEWRDLQGGE
Botulinum neurotoxin E
  binding result: no binding (tested: 30 nM; also 300 nM (data not shown))
Botulinum neurotoxin A
  binding result: no binding (tested: 30 nM; also 300 nM (data not shown))

B3: GST fusion of rat synaptotagmin IV lacking the C2B domain (receptor)
chain: MAPITTSRVEFDEIPTVVGIFSAFGLVFTVSLFAWICCQRRSAKSNKTPPYKFVHVLKGVDIYPENLSSKKKFGGDDKSEAKRKAALPNLSLHLDLEKRDLNGNFPKTNPKAGSSSDLENVTPKLFPETEKEAVSPESLKSSTSLTSEEKQEKLGTLFLSLEYNFEKKAFVVNIKEAQGLPAMDEQSMTSDPYIKMTILPEKKHKVKTRVLRKTLDPVFDETFTFYGVPYPHIQELSLHFTVLSFDRFSRDDVIGEVLVPLSGIELSDGKMLMTREIIKR
Botulinum neurotoxin E
  binding result: no binding (tested: 30 nM; also 300 nM (data not shown))
Botulinum neurotoxin A
  binding result: no binding (tested: 30 nM; also 300 nM (data not shown))
